Experimental data as given in patent US20180030144A1 (INNATE PHARMA, published 2018).

Legend:
[1] = molecular target: T1, human CD73 expressed at the cell surface (human, UniProt P21589 27-549); assay: flow cytometry on MDA-MB-231 cells pre-incubated with 200 µM APCP
T1 construct: GPI-anchored dimer on cells; also called huCD73; cellular CD73
T1 sequence: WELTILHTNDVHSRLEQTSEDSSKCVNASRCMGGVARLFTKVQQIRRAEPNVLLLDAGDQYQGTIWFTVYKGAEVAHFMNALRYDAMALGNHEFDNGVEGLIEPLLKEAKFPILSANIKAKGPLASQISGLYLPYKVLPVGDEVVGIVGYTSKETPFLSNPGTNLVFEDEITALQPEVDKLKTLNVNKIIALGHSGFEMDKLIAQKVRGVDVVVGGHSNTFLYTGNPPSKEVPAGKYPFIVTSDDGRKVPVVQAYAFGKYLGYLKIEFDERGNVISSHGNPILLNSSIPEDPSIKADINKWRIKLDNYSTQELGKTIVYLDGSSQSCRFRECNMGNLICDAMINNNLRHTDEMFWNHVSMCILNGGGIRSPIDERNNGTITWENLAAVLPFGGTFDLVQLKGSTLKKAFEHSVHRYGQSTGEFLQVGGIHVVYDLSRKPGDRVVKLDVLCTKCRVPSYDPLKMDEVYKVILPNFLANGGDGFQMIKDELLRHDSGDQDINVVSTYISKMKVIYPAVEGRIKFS
Experimental: (§1) MDA-MB-231 cells are available from ATCC (reference HTB-26). 10⁵ cells resuspended in PBS/0.2% BSA/0.02% NaN3 (named “staining buffer”) are distributed into round bottom 96W-microplates. Dose-range of anti-CD73 antibodies was added to the plates and cells are incubated for 45 min at 4° C. Cells were washed three times in staining buffer by spinning plates at 400 g for 3 min at 4° C. PE-coupled goat anti-mouse or goat anti-human IgG Fc fragment secondary antibodies (Beckman Coulter) diluted in staining buffer were added to the cells and plates are incubated for 30 additional minutes at 4° C. Cells were washed three times as described above and analyzed on an Accury C6 flow cytometer equipped with an HTFC plate reader.
(§2) Cells were pre-incubated at 37° C. for 30 minutes in the presence or not of 200 μM adenosine 5′-(α,β-methylene)diphosphate (APCP), followed by addition of antibodies. APCP is an analog of ADP and binds irreversibly to the active site of CD73. When bound by APCP, CD73 changes conformation from an “open” conformation to a “closed” conformation. mAbs 11E1, 8C7, 3C12 and 6E1 bound MDA-MB-231 cells with good affinity both in the presence and absence of APCP. In the presence of APCP, the EC50 was similar to that observed in the absence of APCP. The plateau for maximal binding of 11E1, 8C7, 3C12 and 6E1 was higher in the absence of APCP than in the presence of APCP, while the inverse was true for AD2.

[2] = molecular target: T1, human CD73 expressed at the cell surface; assay: flow cytometry on MDA-MB-231 cells, medium (no APCP)
Experimental: as §1, §2

human CD73 mutant 3 = molecular target: T2, human CD73 mutant 3 (human, UniProt P21589 27-549); assay: flow cytometry titration on HEK293T cells transfected with human CD73 mutant 3, MFI PE
T2 construct: Transfected in HEK293T cells
T2 chain: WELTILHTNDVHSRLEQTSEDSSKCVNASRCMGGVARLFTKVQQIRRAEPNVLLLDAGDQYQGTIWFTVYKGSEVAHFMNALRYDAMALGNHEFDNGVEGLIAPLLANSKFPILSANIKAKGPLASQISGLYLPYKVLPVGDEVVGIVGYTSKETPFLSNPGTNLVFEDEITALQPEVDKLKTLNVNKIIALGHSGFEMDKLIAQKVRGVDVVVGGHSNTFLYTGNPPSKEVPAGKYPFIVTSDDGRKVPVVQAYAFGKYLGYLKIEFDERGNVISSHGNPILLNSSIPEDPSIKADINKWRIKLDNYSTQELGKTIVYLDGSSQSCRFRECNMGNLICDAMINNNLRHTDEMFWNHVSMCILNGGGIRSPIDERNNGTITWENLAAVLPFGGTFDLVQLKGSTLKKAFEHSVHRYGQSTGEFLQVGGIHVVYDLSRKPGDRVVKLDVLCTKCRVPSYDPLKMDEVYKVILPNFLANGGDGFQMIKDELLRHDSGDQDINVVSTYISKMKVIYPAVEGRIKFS

[3] = molecular target: T1, human CD73 expressed at the cell surface; assay: flow cytometry titration on HEK293T cells transfected with wild type human CD73, MFI PE
[4] = molecular target: T1, human CD73 expressed at the cell surface; assay: flow cytometry titration on MDA-MB-231 cells (endogenous CD73), median of fluorescence
Experimental: as §1
Median of fluorescence vs. antibodies concentration was plotted on graphs and EC50 is calculated using Graph Pad Prism program.

[5] = molecular target: T3, cynomolgus CD73 expressed on a recombinant host cell line (cynomolgus); assay: flow cytometry titration on a cynomolgus-CD73-expressing recombinant host cell line, median of fluorescence
T3 construct: whole, on cells; also called cynoCD73

[6] = molecular target: T4, mouse CD73 expressed on a recombinant host cell line (mouse, UniProt Q61503 29-551); assay: flow cytometry titration on a mouse-CD73-expressing recombinant host cell line, median of fluorescence
T4 construct: whole, on cells; also called moCD73
T4 sequence (looked up): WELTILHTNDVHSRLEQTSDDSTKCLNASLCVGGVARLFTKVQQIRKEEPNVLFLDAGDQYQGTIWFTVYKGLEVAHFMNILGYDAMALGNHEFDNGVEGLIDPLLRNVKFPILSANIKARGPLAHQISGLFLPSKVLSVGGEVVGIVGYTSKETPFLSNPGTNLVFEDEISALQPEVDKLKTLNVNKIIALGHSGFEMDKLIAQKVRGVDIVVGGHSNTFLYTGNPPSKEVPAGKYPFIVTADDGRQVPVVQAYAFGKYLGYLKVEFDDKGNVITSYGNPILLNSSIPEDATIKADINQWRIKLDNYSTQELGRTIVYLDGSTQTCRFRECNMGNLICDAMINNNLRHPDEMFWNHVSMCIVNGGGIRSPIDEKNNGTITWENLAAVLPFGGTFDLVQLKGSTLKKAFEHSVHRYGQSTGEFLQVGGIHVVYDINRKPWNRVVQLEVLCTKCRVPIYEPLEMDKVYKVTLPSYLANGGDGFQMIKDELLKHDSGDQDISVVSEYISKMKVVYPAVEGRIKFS

[7] = molecular target: T5, recombinant human CD73-His extracellular domain protein (soluble dimer) (human, UniProt P21589 27-547); assay: cell-based or functional assay
T5 sequence: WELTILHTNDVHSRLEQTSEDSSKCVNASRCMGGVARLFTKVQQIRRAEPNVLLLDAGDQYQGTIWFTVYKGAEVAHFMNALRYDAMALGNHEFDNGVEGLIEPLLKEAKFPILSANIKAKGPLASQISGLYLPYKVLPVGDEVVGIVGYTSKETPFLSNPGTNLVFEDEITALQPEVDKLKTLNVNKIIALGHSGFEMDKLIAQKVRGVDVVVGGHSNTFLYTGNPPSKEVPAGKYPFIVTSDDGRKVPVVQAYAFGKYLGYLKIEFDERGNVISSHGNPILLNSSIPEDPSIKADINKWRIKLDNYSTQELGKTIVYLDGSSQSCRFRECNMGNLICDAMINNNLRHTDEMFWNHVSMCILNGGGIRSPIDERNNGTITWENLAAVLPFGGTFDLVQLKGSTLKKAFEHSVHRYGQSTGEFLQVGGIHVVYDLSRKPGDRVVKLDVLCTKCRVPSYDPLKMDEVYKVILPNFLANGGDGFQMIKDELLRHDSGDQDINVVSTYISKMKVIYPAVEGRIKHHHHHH

[8] = molecular target: T1, human CD73 expressed at the cell surface; assay: flow cytometry titration on a human-CD73-expressing recombinant host cell line, median of fluorescence
[9] = molecular target: T5, recombinant human CD73-His …; assay: ELISA, plate-coated recombinant human CD73
Experimental: 5 μg/ml of recombinant human CD73 protein (IPH, isoform E6) was coated on MaxiSorp ELISA plates (Nunc) in PBS, overnight at 4° C. Plates were washed 5 times in washing buffer (PBS, 0.05% Tween20) and unspecific sites were saturated by adding 200 μl/w TBS starting block buffer (Thermo Ficher). Dose-range of anti-CD73 antibodies were incubated for 2 h at 37° C. Plates were washed 5 times in washing buffer and HRP-coupled goat anti-human or goat anti-mouse IgG Fc fragment secondary antibody (Bethyl, 1/50000) was added for 1 hr at RT to detect bound anti-CD73 antibodies. […] The enzymatic reaction was stopped by adding HCl 1M and O.D. was measured at 450 nm. Optical density vs. anti-CD73 Ab concentration was plotted on graphs and EC50 is calculated using GraphPad Prism software.

[10] = molecular target: T1, human CD73 expressed at the cell surface; assay: cell-based or functional assay
[11] = molecular target: T1, human CD73 expressed at the cell surface; assay: cell-based or functional assay; remark: listed apart in the source
[12] = molecular target: T1, human CD73 expressed at the cell surface; assay: cell-based or functional assay; remark: listed apart in the source

B1: antibody AD2 (Biolegend, product ref. 344004) (antibody, V domains shown)
VH: EVQLQQSGAELVKPGASVKLSCTASGFNIKDTYIHWVKQRPEQGLEWIGRIDPATGNTEYDPKFQGKATITADTSSNTAYLHLSSLTSEDTAVYYCARGYYGSSYPPWFAYWGQGTLVTVS
VL: DIVMTQSHKFMSTSVGDRVSITCKASQDVGSAVAWYQQKPGQSPKLLIYWASTRHTGVPDRFTGSGSGTDFTLTISNVQSEDLADYFCQQYSSYPLTFGAGTKLELK
[1]
  EC50: 0.0959 µg/mL
[2]
  EC50: 0.0629 µg/mL
Human CD73 mutant 3
  EC50 (read off the curve): ~0.1 µg/mL
[3]
  EC50 (read off the curve): ~0.2 µg/mL

B2: antibody 8C7 (antibody, human IgG1, V domains shown)
VH: EVQLQQSGPELVKPGASVKVSCKASGYAFASYNMNWVKQSHGKSLDWIGYIDPYNGGSSYNLTFKGKATLTVDKSSTTAYMHLNSLTSEDSAVYYCARGYGNYKAWFAYWGQGTLVTVSA
VL: SIVMTPTPKFLLVSAGDRVTITCKASQSVSNDVAWYQQKPGQSPKLLIYYASTRYTGVPDRFTGSGYGTDFTFTISTVQAEDLAVYFCQQDYSSLTFGAGTKLELKR
notes: Produced as chimeric human IgG1 with heavy chain N297Q (Kabat EU numbering); RTVAAP)
[4]
  EC50 (read off the curve): ~0.1 µg/mL
[5]
  EC50 (read off the curve): ~0.4 µg/mL
[1]
  EC50: 0.143 µg/mL
[6]
  binding result: no binding (tested: about 30 µg/ml)
[7]
  EC50 for CD73 blockade (enzymatic activity of soluble recombinant human CD73-his): 1.29 µg/mL
[8]
  EC50 (read off the curve): ~0.1 µg/mL
[9]
  EC50: 0.009 µg/mL
[2]
  EC50: 0.0903 µg/mL
[10]
  decrease of the enzymatic activity of cellular CD73 (MDA-MB-231 cells): > 75%
[11]
  EC50 for neutralization of the enzymatic activity of cellular CD73 (MDA-MB-231 cells, free phosphate from AMP): 0.319 µg/mL
[12]
  EC50 for neutralization of 5'-ectonucleotidase activity, mean over MDA-MB-231, H292 and A375 cells: 0.21 µg/mL
  EC70 for neutralization of 5'-ectonucleotidase activity, mean over MDA-MB-231, H292 and A375 cells: 0.46 µg/mL
  EC100 for neutralization of 5'-ectonucleotidase activity, mean over MDA-MB-231, H292 and A375 cells: 0.72 µg/mL
